One data set deals with T1, RHAU53 (Homo sapiens, UniProt Q9H2U1).
T1 construct: RHAU-specific motif containing 53 amino acids (RHAU53)
T1 sequence (Q9H2U1 53-105 limits assumed): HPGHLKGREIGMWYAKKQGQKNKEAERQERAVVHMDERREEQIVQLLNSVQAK
As to conditions: It is known; cited from earlier work.

Data set [1] addresses T2, DHX36 (RHAU), full-length (UniProt Q9H2U1 Q9H2U1:1-1008).
T2 sequence: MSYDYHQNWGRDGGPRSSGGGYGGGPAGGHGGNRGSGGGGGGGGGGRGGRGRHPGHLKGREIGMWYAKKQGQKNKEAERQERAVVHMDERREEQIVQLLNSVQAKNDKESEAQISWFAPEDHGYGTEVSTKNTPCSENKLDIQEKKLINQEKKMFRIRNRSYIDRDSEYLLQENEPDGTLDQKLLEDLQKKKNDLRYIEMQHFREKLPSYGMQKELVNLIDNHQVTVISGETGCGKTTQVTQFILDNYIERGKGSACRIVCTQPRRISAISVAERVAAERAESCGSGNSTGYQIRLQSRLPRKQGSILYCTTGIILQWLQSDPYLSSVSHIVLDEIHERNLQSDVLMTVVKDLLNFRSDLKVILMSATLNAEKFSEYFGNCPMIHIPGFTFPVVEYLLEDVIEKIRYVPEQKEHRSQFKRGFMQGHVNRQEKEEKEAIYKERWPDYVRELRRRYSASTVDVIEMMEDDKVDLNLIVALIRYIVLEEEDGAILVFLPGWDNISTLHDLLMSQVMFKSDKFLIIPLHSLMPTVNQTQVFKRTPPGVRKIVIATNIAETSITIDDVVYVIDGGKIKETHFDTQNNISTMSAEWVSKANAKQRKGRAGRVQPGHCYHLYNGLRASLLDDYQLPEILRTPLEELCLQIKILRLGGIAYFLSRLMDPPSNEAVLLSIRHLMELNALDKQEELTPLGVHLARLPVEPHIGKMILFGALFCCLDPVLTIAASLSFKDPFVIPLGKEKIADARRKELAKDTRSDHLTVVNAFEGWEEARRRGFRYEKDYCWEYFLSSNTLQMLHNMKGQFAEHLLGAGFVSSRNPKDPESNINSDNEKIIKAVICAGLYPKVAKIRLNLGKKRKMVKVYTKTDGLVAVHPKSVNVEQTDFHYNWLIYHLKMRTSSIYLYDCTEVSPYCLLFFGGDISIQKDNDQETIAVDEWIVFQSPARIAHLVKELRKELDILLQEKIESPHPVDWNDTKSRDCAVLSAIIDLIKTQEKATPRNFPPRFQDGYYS
Kind of data set: EMSA; strong binding, data not shown. The settings on record: G4. (In EMSA bound probe runs differently from free probe, usually more slowly.)

Data set [2] concerns the target T2, DHX36 (RHAU), full-length. The experiment in a line: MST; 25 mM Tris-HCl pH 7.5, 150 mM KCl, 1 mM MgCl2, 37 C. The settings on record: label: 3'-FAM; G4. The procedure: Before the reaction, FAM labeled G4-compound conjugate was heated at 75° C. for 5 minutes and cooled down on the ice for 10 minutes. DHX36 protein was serially diluted to 16 samples from the highest concentration of […]. FAM-labeled oligonucleotides (40 nM) were added to each sample and incubated in Tris-HCl buffer (25 mM Tris-HCl, pH 7.5, 150 mM KCl, and 1 mM MgCl₂) at 37° C. for 30 minutes. Binding affinity was carried out on capillary tubes using an MST machine. The curve fitting and Kd determination were obtained from software.
Full-length DHX36 protein was then used to further confirm the recognition of the present rG4-PROTAC to G4BP via MST binding assay. […] As described above, the affinity of A_dG4_FAM to RHAU53 was nearly 4.7 times higher (Kd=[…]) than that of FAM_rG4_A (FIG. 2B). The interaction between A_dG4_FAM and DHX36 protein quantified by MST (Kd=303±55; FIG. 2D) confirmed the result, indicating a relatively weaker interaction with DHX36.

Data set [3] concerns the target T3, RHAU53 peptide (53-aa RHAU/DHX36 G4-binding fragment) (UniProt Q9H2U1 Q9H2U1:53-105).
T3 chain: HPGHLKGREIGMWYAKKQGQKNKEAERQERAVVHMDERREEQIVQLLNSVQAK
The experiment in a line: EMSA; 25 mM Tris-HCl pH 7.5, 150 mM KCl, 1 mM MgCl2, 37 C. The settings on record: label: 3'-FAM. The procedure:
All oligonucleotides were heated for 5 minutes at 75° C. and cooled down for 10 minutes on ice. Different concentrations of RHAU53 peptide (0-2 μM) and 5-carboxyfluorescein (FAM)-labeled oligonucleotides or G4-compound conjugate (30 nM) were mixed in the Tris-HCl buffer (25 mM Tris-HCl, pH 7.5, 150 mM KCl and 1 mM MgCl₂). The mixture was incubated at 37° C. for 30 minutes, and 5% glycerol was then added to each sample. Bound and unbound RNAs were separated on 10% native polyacrylamide gel in 0.5× Tris/Borate/EDTA (TBE) at 4° C., 150 V for 30 minutes. The gel was scanned by scanner at 500 V and quantified by software.
To evaluate the target recognition ability of the rG4-PROTACs, the binding assay of FAM_rG4_A to RHAU53 peptide was performed by EMSA. RHAU53 peptide, the truncated DHX36 fragment, is the most important core protein domain required for rG4-RHAU interaction.

{5Hexynyl} = hexynyl group used for click conjugation

For “hTERC rG4: human telomerase RNA component rG4, 5′-GGGUUGCGGAGGGUGGGCCU-3′ (SEQ ID NO: 1), the warhead targeting G4BP (RNA, 5' {5Hexynyl}, backbone not given here; further chemistry not fully specified)”, in the data set with RHAU53, the “affinity for RHAU53” value is “nanomolar affinity”.

For the molecule CGGGGCGGGUGGGGAGGGGU (ssRNA) [APP 3'UTR rG4], in data set [1], the binding result was “binds”.

One may read the Kd as the equilibrium constant for the complex coming apart. Lower therefore signals tighter binding. In the case of GGGUUGCGGAGGGUGGGCCU (ssRNA, 5'-hexynyl clicked to azide-modified AHPC) [FAM_rG4_A (hTERC rG4 WT-AHPC conjugate)], the Kd is 79.7 nM in data set [2] and 67.4 nM in data set [3].

The values are drawn from patent US20250170247A1, “CONJUGATES, AND USES THEREOF” (CITY UNIVERSITY OF HONG KONG, priority 2023, published 2025).
